Reference: publication PMC6203816 (Nature Communications, 2018)

B1: CAP228-3D IgG1 (antibody, V domains shown)
VH: EVQLVQSGAEVKKPGESLKISCKGFGYSFSTYWIAWVRQMPGKGLEWMGMIYPGDSDTKYSPSLQGQVTISGDKSISTAYLQWSSLKASDTAMYYCARLLNNYDSSGFLYWYLDLWGRGTLVTVSS
VL: NFMLTQPHSVSESPGKTVTISCTRSSGSIASDYVQWYQQRPGSSPTTVIYEDNQRPSGVPDRFSGSIDSSSNSASLTISGLKTEDEADYYCQSYDMTNHNWVFGGGTKLTVL
B2: 830 A (antibody, V domains shown)
VH: QVQLQQWGPGLLKPSETLSLTCAVYGGSFGRYYWSWIRQSSGEGLEWLGQIDHTGSTTYNPSLKGRVTISIDSSTNQFSLKVTSVIAADTAVYYCARAPSGYPGVSLYQYYGLDVWGQGTTVTVSS
VL: DTVMTQSPATLSVSPGERVTLSCRASQIINTNLAWYQKRPGQAPRLLIYAASARATGIPARFSGSGSGTEFTLTISGLQSEDSAVYYCQQYKHWPPYTFGRGTKLEIR
notes: also called V2i mAb 830 A

Biological target: C1080 envelope on concentrated pseudovirus particles (HIV-1 strain C1080 (clone C1080.c3 …, UniProt I6NF57, strain))
Assay: ELISA
Details: one partner purified

| Binder | binding result |
| --- | --- |
| B1 | binds |
| B2 | binds |
